Among the data in patent publication US5928931A, “Isolation, purification and cloning of retinol dehydratase” (Cornell Research Foundation, Inc., priority 1997, dated 1999) are Km values, retold here.

Substrate in series [1]: Nc1ncnc2c1ncn2[C@@H]1O[C@H](COP(=O)(O)OS(=O)(=O)O)[C@@H](OP(=O)(O)O)[C@H]1O
The series is described as follows: purified protein, by the assay type. The note with it: other: purified recombinant retinol dehydratase, [3H]-retinol assay, n=3; 24.0 °C.

Substrate in series [2]: CC1=C(/C=C/C(C)=C/C=C/C(C)=C/CO)C(C)(C)CCC1
The series is described as follows: Retinol dehydratase assay ([3H]-retinol to [3H]-AR, HPLC radiomatic detection); kinetic studies. It counts as biochemical, Spodoptera frugiperda. As to conditions: 24.0 °C.

B1: retinol dehydratase (Spodoptera frugiperda) (protein)
chain: MEKQQDLPFPYEFRELNPEEDKLVKANLGAFPTTYVKLGPKGYMVYRPYLKDAANIYNMPLRPTDVFVASYQRSGTTMTQELVWLIENDLNFEAAKTYMSLRYIYLDGFMIYDPEKQEEYNDILPNPENLDMERYLGLLEYFSRPGSSLLAAVPPTEKRFVKTHLPLSLMPPNMLDTVKMVYLARDPRDVAVSSFHHARLLYLLNKQSNFKDFWEMFHRGLYTLTPYFEHVKEAWAKRHDPNMLFLFYEDYLKDLPGCIARIADFLGKKLSEEQIQRLCEHLNFEKFKNNGAVNMEDYREIGILADGEHFIRKGKAGCWRDYFDEEMTKQAEKWIKDNLKDTDLRYPNMEL
For orientation: Km means the substrate concentration at which the rate is half of its maximum. Consider B1, for which the Michaelis constant (Km) was found to be 0.26 ± 0.05 µM in series [1]; 0.05 µM in series [2] (other: BSA carrier, second condition as printed); 0.001 µM in series [2] (other: n=5, free retinol from carrier protein affinities); 0.00066 µM in series [2] (other: native retinol dehydratase 0.1 μg/assay, 3H-retinol, carrier BSA or CRBP, free retinol, representative experiment, non-linear regression); 0.025 µM in series [2] (other: with 2×10^-7 M CRBP-1); 0.4 µM in series [2] (other: with 10^-3 M BSA).
